Three molecules from article PMC6107238, “Conformational plasticity of the intrinsically disordered protein ASR1 modulates its function as a drought stress-responsive gene” (PLoS ONE, 2018) can be followed below.

Data set [1] has as its target T1, ASR1 (Abscisic, Stress, Ripening 1) (Solanum lycopersicum (tomato), UniProt Q08655 1-115).
T1 sequence: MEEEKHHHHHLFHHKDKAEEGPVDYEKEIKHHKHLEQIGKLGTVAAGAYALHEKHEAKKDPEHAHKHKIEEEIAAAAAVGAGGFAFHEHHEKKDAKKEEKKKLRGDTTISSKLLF
In words: fluorescence anisotropy; 100 uM ZnCl2; Buffer H: 100 mM NaCl, 20 mM HEPES pH 7.4, with 100 uM ZnCl2; 250 nM FITC-dsDNA; anisotropy temperature not stated (CD at 25 C). The note with it: protein: recombinant; tags: untagged in the main text (original His6 removed); label: 5' FITC on one strand; blunt.

Data set [2] concerns the molecule itself. In words: SDS-PAGE; purified ASR1 at high protein concentrations on SDS-PAGE.

B1: FITC-oligoS (dsDNA)
DNA 1: AGTTCTGGTTGG
DNA 2: CCAACCAGAACT
By Kd is commonly meant the free concentration of one partner at which half of the binding sites on the other are occupied at equilibrium, for simple one-to-one binding. Turning to B1, the Kd in data set [1] stood at 1080 ± 46 nM.

B2: FITC-oligoC (dsDNA)
DNA 1: TATTGGGCTTGG
DNA 2: CCAAGCCCAATA
Take B2: the Kd in data set [1] amounted to 216 ± 10 nM.

B3: Tomato ASR1 (Abscisic, Stress, Ripening protein 1), untagged recombinant protein (natural protein, UniProt Q08655 1-115, looked up)
chain: T1 sequence
notes: ASR1 of tomato; 'peaks corresponding to the expected full-length protein were pooled'; 12.7 kDa by SLS; The cloning of ASR1 alone is not described; also called untagged ASR1; ASR1 recombinant protein
As to B3, the binding result in data set [2] is recorded as “binds”.
